From paper PMC6941359, “An improved bind-n-seq strategy to determine protein-DNA interactions validated using the bacterial transcriptional regulator YipR”

Columns and labels:
His6-MBP tag alone = His6-MBP tag alone (UniProt P0AEX9 27-392); assay: EMSA; tag-only control; EMSA buffer not given in the material; Bind-n-seq: 20 mM Tris-HCl pH 8, 1 mM TCEP, 2% glycerol, 1 mM EDTA (binding buffer A) plus MgCl2, BSA and 0-500 mM KCl, room temperature 2 h; conditions: protein: recombinant; tags: His6-MBP; label: DIG; blunt
YipR (His6-MBP fusion) = YipR (His6-MBP fusion) (Xanthomonas campestris pv. campestris …, UniProt A0A0H2XAU1 1-344); assay: EMSA; EMSA buffer not given in the material; Bind-n-seq: 20 mM Tris-HCl pH 8, 1 mM TCEP, 2% glycerol, 1 mM EDTA (binding buffer A) plus MgCl2, BSA and 0-500 mM KCl, room temperature 2 h; conditions: protein: recombinant; tags: His6-MBP; label: DIG; blunt
Chain of YipR (His6-MBP fusion) (A0A0H2XAU1 whole entry, the tested form may be a part): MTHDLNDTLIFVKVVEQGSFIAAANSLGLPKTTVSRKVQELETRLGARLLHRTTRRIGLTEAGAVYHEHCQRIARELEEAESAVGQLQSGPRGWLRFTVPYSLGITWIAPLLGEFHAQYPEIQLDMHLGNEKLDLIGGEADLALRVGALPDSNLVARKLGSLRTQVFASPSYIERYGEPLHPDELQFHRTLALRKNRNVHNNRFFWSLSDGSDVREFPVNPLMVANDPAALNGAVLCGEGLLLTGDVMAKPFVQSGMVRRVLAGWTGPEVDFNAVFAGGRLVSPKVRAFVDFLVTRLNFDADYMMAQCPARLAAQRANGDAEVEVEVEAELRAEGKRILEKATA

B1: XC_2633P (dsDNA)
DNA 1: CCGGCTTTATCCAGATCGCCGACCTGCACCCAGGACCCAGCGGCTTGCTGACGCCCTTCAAGGACACACGGATGTGGATAGCGGGGTTCAAGCCCGACGGGAACCGCGACAAGTAACCCGGCCTCCTACTTCCCAATCCCTCTC
DNA 2: GAGAGGGATTGGGAAGTAGGAGGCCGGGTTACTTGTCGCGGTTCCCGTCGGGCTTGAACCCCGCTATCCACATCCGTGTGTCCTTGAAGGGCGTCAGCAAGCCGCTGGGTCCTGGGTGCAGGTCGGCGATCTGGATAAAGCCGG
Does B1 bind (His6-MBP tag alone)?
Result: no binding

Does B1 bind (YipR (His6-MBP fusion))?
Result: binds
